T1: TOP3β (DNA topoisomerase IIIβ) (Giardia lamblia WB, UniProt A8B577 1-973)
T1 sequence: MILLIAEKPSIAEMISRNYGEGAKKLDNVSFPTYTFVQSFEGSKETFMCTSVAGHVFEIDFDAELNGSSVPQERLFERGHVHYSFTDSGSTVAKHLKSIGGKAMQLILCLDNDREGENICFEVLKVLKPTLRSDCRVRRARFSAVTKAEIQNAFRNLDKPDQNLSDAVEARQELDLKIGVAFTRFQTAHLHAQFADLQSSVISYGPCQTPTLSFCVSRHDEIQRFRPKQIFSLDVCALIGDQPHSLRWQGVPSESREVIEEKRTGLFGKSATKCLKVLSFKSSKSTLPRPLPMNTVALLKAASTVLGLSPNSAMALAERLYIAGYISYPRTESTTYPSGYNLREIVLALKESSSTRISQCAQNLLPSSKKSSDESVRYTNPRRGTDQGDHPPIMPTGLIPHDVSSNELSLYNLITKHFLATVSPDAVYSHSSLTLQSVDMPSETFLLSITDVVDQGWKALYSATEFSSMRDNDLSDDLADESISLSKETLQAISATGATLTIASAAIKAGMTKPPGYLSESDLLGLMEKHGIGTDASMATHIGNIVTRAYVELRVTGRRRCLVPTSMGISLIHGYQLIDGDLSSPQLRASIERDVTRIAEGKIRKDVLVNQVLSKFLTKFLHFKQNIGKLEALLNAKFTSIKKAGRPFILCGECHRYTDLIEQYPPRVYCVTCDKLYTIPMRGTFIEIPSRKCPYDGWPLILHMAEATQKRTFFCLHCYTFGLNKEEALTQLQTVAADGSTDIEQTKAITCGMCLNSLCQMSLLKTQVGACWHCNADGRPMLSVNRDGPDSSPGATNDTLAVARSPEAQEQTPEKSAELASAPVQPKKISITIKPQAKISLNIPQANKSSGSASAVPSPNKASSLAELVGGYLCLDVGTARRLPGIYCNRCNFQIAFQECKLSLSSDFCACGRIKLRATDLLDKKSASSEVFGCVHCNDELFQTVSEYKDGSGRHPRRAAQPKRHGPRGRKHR

B1: cwp3-30/+10 (dsDNA)
DNA 1: GTCTTTCCCAAAAAATAAGTTACTACTGATATGTTTTCTC
DNA 2: GAGAAAACATATCAGTAGTAACTTATTTTTTGGGAAAGAC
B2: cwp2-60/-31 (dsDNA)
DNA 1: TAGACTGATGCTGTAGAGGTCAACAGATAA
DNA 2: TTATCTGTTGACCTCTACAGCATCAGTCTA
B3: cwp1-90/-46 (dsDNA)
DNA 1: CTGGCTAACAGTCTACAGTCTACAATTTACAGTATACAATCTACA
DNA 2: TGTAGATTGTATACTGTAAATTGTAGACTGTAGACTGTTAGCCAG
B4: ran-51/-20 (dsDNA)
DNA 1: TAAAATAAATTAAATCGAAATTAAAACTTTAA
DNA 2: TTAAAGTTTTAATTTCGATTTAATTTATTTTA
B5: 18S-30/-1 (dsDNA)
DNA 1: GGCGCCCGGCCCGCGGCGCCCGCGCCCGGC
DNA 2: GCCGGGCGCGGGCGCCGCGGGCCGGGCGCC
B6: cwp1-45/-1 (dsDNA)
DNA 1: GTTTACAACTCTCAGATCAAGAAACACAGAAATAAAATATCAGGG
DNA 2: CCCTGATATTTTATTTCTGTGTTTCTTGATCTGAGAGTTGTAAAC
B7: 18S-60/-31 (dsDNA)
DNA 1: CCGTGCCAGGCGGCGGCCCCCGCGCAGGGA
DNA 2: TCCCTGCGCGGGGGCCGCCGCCTGGCACGG

Legend:
[1] = target: T1, TOP3β (DNA topoisomerase IIIβ); test: EMSA; EMSA: 0.02 pmol 32P probe, 5 ng protein, 20 µl, 0.5 µg poly(dI-dC), 15 min at room temperature, 6% acrylamide gel; buffer, salt and pH not given (cited reference); settings: protein: recombinant, tags: C-terminal V5 and His
[2] = target: T1, TOP3β (DNA topoisomerase IIIβ); test: EMSA; supershifted by anti-TOP3β; EMSA: 0.02 pmol 32P probe, 5 ng protein, 20 µl, 0.5 µg poly(dI-dC), 15 min at room temperature, 6% acrylamide gel; buffer, salt and pH not given (cited reference); settings: protein: recombinant, tags: C-terminal V5 and His
[3] = target: T1, TOP3β (DNA topoisomerase IIIβ); test: EMSA; strong; EMSA: 0.02 pmol 32P probe, 5 ng protein, 20 µl, 0.5 µg poly(dI-dC), 15 min at room temperature, 6% acrylamide gel; buffer, salt and pH not given (cited reference); settings: protein: recombinant; tags: C-terminal V5 and His; label: 5'-32P

Row | Binder | binding result ([1]; label: 32P) | binding result ([1]; label: 5'-32P) | further results
1 | GGCGCCCGGCCCGCGGCGCCCGCGCCCGGC (ssDNA) [18S-30/-1F] | no binding |  | 
2 | GTCTTTCCCAAAAAATAAGTTACTACTGATATGTTTTCTC (ssDNA) [cwp3-30/+10F] |  |  | binding result ([2]; label: 32P): binds
3 | B1 |  |  | binding result [3]: binds
4 | B2 |  |  | binding result [3]: binds
5 | CTGGCTAACAGTCTACAGTCTACAATTTACAGTATACAATCTACA (ssDNA) [cwp1-90/-46F] | binds |  | 
6 | B3 |  | binds | 
7 | B4 |  | binds | 
8 | B5 |  | no binding | 
9 | TAGACTGATGCTGTAGAGGTCAACAGATAA (ssDNA) [cwp2-60/-31F] | binds |  | 
10 | B6 |  |  | binding result ([2]; label: 5'-32P): binds
11 | GTTTACAACTCTCAGATCAAGAAACACAGAAATAAAATATCAGGG (ssDNA) [cwp1-45/-1F] | binds |  | 
12 | B7 |  | no binding | 

— article PMC7058931, “DNA topoisomerase IIIβ promotes cyst generation by inducing cyst wall protein gene expression in Giardia lamblia”
